Reference: paper PMC4414141, “The function of cux1 in oxidative dna damage repair is needed to prevent premature senescence of mouse embryo fibroblasts”

Assays:
Settings in all cases: protein: recombinant; tags: N-terminal His; label: 5'-32P on top strand
CUX1 CR3HD = target: T1, CUX1 CR3HD (UniProt P39880 1117-1303); experiment: EMSA; complex co-migrates with that of OGG1; EMSA: 50 nM bacterially purified protein, 60 ng poly(dI-dC); buffer, salt, pH and temperature by reference to earlier work (not in material)
T1 sequence: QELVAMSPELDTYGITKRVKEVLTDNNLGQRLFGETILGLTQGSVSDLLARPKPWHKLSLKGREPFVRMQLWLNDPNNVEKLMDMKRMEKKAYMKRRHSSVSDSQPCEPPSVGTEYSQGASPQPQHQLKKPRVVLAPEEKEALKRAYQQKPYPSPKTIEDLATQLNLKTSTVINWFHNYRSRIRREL

CUX1 CR2CR3HD = target: T2, CUX1 CR2CR3HD (UniProt P39880 934-1303); experiment: EMSA; EMSA: 50 nM bacterially purified protein, 60 ng poly(dI-dC); buffer, salt, pH and temperature by reference to earlier work (not in material)
T2 sequence: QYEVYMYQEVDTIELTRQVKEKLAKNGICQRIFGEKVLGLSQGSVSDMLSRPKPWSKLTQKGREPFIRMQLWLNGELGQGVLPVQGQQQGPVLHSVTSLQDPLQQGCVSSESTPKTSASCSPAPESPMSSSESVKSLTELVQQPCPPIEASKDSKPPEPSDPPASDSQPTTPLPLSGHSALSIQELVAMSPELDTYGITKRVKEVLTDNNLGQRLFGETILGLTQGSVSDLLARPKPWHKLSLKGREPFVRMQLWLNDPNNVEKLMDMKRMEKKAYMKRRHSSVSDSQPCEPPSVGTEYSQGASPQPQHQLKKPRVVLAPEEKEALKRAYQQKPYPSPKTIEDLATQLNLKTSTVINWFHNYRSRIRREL

CUX1 CR1CR2 = target: T3, CUX1 CR1CR2 (UniProt P39880 542-1021); experiment: as above
T3 sequence: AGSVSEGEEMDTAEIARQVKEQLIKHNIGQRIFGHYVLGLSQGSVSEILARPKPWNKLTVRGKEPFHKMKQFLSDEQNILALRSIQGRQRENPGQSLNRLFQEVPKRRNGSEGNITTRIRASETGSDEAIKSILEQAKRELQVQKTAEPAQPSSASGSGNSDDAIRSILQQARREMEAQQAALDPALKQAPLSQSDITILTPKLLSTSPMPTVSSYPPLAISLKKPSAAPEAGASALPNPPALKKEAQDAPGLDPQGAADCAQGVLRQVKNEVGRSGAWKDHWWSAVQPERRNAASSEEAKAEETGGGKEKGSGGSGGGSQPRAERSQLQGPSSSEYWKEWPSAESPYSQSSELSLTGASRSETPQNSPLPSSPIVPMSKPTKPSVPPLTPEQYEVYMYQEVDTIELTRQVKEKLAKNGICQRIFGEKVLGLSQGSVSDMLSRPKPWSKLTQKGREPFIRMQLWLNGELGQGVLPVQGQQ

Measured: binding result

B1: Probe A, 8-oxoG (dsDNA)
DNA 1: CCGGTGCATGACACTGTGACCTATCCTCAGCG
DNA 2: CGCTGAGGATAGGTCACAGTGTCATGCACCGG
modifications: 8-oxoG at position X of top strand
binds: all assays above
